Legend:
[1] = biological target: EGFR-TEV-NIa-Pro cleavage (Leu)-tTA (human) (UniProt P00533); assay: cell-based or functional assay
[2] = biological target: CCR5-tTA fusion construct containing the low efficiency cleavage site (UniProt P51681); assay: cell-based or functional assay
UniProt P51681, sequence (P51681 whole entry, the tested form may be a part): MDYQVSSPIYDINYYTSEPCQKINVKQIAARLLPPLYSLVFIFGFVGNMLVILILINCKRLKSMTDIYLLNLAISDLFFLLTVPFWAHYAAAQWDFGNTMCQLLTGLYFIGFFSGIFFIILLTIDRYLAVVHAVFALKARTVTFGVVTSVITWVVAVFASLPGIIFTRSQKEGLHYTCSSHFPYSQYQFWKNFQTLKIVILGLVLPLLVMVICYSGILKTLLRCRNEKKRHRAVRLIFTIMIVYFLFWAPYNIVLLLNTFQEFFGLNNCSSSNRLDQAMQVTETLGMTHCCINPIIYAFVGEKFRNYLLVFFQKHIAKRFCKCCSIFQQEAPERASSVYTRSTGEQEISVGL

| Substance | increase of luciferase reporter gene activity at 100 ng/ml ligand, cells co-expressing PLC Gamma1-TEV [1] | induction of β-galactosidase reporter gene expression over background at 1 µg/ml RANTES, clone 34 cells with stable ARRB2-TEV-NIa protease [2] |
| --- | --- | --- |
| human Transforming Growth Factor-Alpha (from UniProt P01135 40-89) (ligand) | 18.3 fold |  |
| Regulated on Activation, Normal T-Cell Expressed and Secreted (RANTES) (from UniProt P13501 24-91) (ligand) |  | 40 fold |

Reference: US20070224615A1
